Data on two variants can be found in paper PMC5662737, “Structural and mechanistic insights into ATRX-dependent and -independent functions of the histone chaperone DAXX” (Nature Communications, 2017).

To fix the notation:
B1: human DAXX four-helix bundle domain (4HB, residues 50–144) [human] / human ATRX DAXX-binding motif (DBM) peptide, wild type [human] (parent complex)
chain 1: SSSSGGKKCYKLENEKLFEEFLELCKMQTADHPEVVPFLYNRQQRAHSLFLASAEFCNILSRVLSRARSRPAKLYVYINELCTVLKAHSAKKKLN
chain 2: NDPENRIAKKMLLEEIKANLSSDE
B2: human ATRX DAXX-binding motif (DBM) peptide, wild type [human] / human DAXX four-helix bundle domain (4HB, residues 50–144) [human] (parent complex)
chain 1: NDPENRIAKKMLLEEIKANLSSDE
chain 2: B1 chain 1

The variants in one test derive from B1. Description: ITC. On the technique in general: In ITC the heat of successive injections is recorded.
A word on the Kd: it is the concentration at which binding is half-saturated. Consider chain 1 SSSSGGKKCYKLENEKLFEEFLELCKMQTADHPEVVPALYNRQQRAHSLFLASAEFCNILSRVLSRARSRPAKLYVYINELCTVLKAHSAKKKLN, for which the Kd was found to be 7.5 µM.

The variants in the next test derive from B2. Nature of the test: ITC.
chain 1 NDPENRIAKKMLLEEAKANLSSDE: the Kd came out at 12.9 µM.
